The values below come from patent US20140112930A1 (published 2014).

Experiment [1] addresses T1, Biotin-hBA2 (human, biotinylated (sites not given)).
T1 construct: hBA2 consists of two dimers; also called biotinylated hBA2; human bow-Ang2
Description: blocking ELISA, biotin-hBA2 to hTie-2.

Experiment [2] addresses T2, Human Ang-2FD-hFc (human).
T2 construct: also called dimeric human Ang-2FD; human Ang-2FD protein conjugated to human IgG
The experiment is described as follows: blocking ELISA, 16.67 nM antibody, Ang-2FD-hFc to coated hTie-2-mFc.

Experiment [3] addresses T3, Mouse Ang-2FD-hFc (mouse (Mus musculus)).
T3 construct: also called dimeric mouse Ang-2FD
The experiment is described as above.

For experiment [4], the target named is T4, Monkey Ang-2FD-hFc (monkey (Macca fascicularis)).
T4 construct: also called dimeric monkey Ang-2FD
Described as above.

The target of experiment [5] is T5, hAng-1-WT (human, UniProt Q15389 20-498, limits assumed).
T5 construct: a tag is not mentioned there; also called full-length wild-type human Ang-1
T5 sequence (looked up): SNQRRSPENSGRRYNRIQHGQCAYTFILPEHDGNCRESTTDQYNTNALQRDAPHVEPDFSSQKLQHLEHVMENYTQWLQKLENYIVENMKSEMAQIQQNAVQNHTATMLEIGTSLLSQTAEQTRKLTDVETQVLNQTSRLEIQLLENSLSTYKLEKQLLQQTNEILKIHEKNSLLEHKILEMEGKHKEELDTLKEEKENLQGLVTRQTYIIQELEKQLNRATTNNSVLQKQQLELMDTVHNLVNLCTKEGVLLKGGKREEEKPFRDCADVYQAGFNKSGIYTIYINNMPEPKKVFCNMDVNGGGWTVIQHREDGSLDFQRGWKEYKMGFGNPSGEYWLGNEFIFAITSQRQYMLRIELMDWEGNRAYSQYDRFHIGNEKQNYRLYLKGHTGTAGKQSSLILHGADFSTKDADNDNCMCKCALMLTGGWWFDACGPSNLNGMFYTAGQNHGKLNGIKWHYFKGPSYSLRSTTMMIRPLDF
Description: SPR, 1 uM blocker premixed with 10 nM hAng-1-WT, over hTie-2-mFc surface. As to the method:
(§1) In this experiment, a human Tie-2 full-length extracellular domain construct (hTie-2-mFc-ecto) was amine-coupled on a BIACORE™ chip to create a receptor coated surface. […] The equilibrated solutions were injected over the receptor surfaces at 5 μL/min for 5 minutes at 25° C.

Experiment [6] deals with T5, hAng-1-WT. The experiment is described as follows: SPR, 1 uM blocker premixed with 10 nM hAng-1-WT, over hTie-2-mFc surface; RU of hAng-1 bound. As to the method: as §1
Background: Surface plasmon resonance follows binding to a sensor surface in real time, without labels.

Experiment [7] has as its target T6, human bow-Ang-2 tetrameric construct (hBA2) (human).
T6 construct: also called human BA2; hBA2-hIgG1
The experiment is described as follows: SPR, captured Ab.

The target in experiment [8] is T7, Monomeric hAng-2FD (human, UniProt O15123 282-496).
T7 construct: also called fibrinogen-like domain of human Ang2; Human Ang-2FD
T7 sequence: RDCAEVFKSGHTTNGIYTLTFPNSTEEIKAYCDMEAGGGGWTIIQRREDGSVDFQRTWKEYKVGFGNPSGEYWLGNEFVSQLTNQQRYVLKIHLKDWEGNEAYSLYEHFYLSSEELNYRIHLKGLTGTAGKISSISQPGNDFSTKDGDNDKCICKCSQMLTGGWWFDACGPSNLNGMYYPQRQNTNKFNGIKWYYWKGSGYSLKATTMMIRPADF
The experiment is described as follows: SPR, captured Ab.

Experiment [9] has as its target T8, wild-type human Ang-2 (hAng-2-WT) (human, UniProt O15123 19-496).
T8 construct: called full-length wild-type; also called Full-length wild-type human Ang-2
T8 sequence: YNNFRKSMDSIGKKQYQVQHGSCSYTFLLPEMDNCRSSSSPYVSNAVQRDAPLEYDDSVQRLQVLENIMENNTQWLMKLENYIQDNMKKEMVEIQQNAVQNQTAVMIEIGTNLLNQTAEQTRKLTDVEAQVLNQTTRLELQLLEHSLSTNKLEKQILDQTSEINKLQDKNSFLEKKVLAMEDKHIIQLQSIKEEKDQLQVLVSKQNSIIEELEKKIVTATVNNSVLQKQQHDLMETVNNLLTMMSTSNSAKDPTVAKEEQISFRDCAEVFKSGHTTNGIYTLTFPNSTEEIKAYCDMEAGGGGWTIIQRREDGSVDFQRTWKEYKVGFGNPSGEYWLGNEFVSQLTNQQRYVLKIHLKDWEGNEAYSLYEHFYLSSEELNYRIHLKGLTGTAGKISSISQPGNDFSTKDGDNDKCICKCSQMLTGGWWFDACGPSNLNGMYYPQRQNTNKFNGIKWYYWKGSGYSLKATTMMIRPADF
The experiment is described as follows: SPR, captured Ab.

Experiment [10] deals with T9, Dimeric Human Ang-2FD conjugated to human IgG1 (human).
T9 construct: also called Human Ang-2FD-hFc; hAng-2FD-hFc
Description: SPR, captured Ab, RT. The method in brief: (§2)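 Antibody captured on amine-coupled goat anti-mouse IgG, anti-human κ or anti-human IgG polyclonal surfaces on a CM5 chip; antigen binding and dissociation followed in real time at room temperature. KD and complex dissociation half-life derived by kinetic analysis.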

In experiment [11] the target is T10, Dimeric Mouse Ang-2FD conjugated to human IgG1 (mouse (Mus musculus); human).
T10 construct: also called Mouse Ang-2FD-hFc
The experiment is described as follows: SPR, captured Ab, RT. The essentials:
as §2

The target of experiment [12] is T11, Dimeric Monkey Ang-2FD conjugated to human IgG1 (monkey (Macca fascicularis); human).
T11 construct: also called Monkey Ang-2FD-hFc
The experiment is described as follows: SPR, captured Ab, RT. The essentials:
as §2

The target in experiment [13] is T10, Dimeric Mouse Ang-2FD conjugated to …. Description: SPR, captured Ab, 25°C. The protocol:
(§3) Each selected antibody or control construct was captured at a flow rate of 40 μL/min for 1 minute on a goat anti-human kappa polyclonal antibody surface created through direct chemical coupling to a BIACORE™ chip to form a captured antibody surface.

Experiment [14] addresses T11, Dimeric Monkey Ang-2FD conjugated to …. The experiment is described as follows: SPR, captured Ab, 25°C. As to the method:
as §3

For experiment [15], the target named is T12, Dimeric Human Ang-2FD-mFc (human, UniProt O15123 282-496).
T12 construct: also called hAng-2FD-mFc; hAng2-FD-mFc; not shown: mouse Fc (mFc)
T12 sequence: T7 sequence
The experiment is described as follows: SPR, captured Ab, 25°C. As to the method: as §3

For experiment [16], the target named is T10, Dimeric Mouse Ang-2FD conjugated to …. Description: SPR, captured Ab, 37°C. The protocol:
as §3

Experiment [17] has as its target T11, Dimeric Monkey Ang-2FD conjugated to …. Description: SPR, captured Ab, 37°C. The protocol:
as §3

Experiment [18] deals with T12, Dimeric Human Ang-2FD-mFc. Description: SPR, captured Ab, 37°C. The protocol:
as §3

In experiment [19] the target is T7, Monomeric hAng-2FD. The experiment is described as follows: SPR, captured Ab, 25°C. The protocol: (§4) Each selected antibody or control construct was captured at a flow rate of 40 μL/min for 1 minute on a goat anti-human IgG polyclonal antibody surface created through direct chemical coupling to a BIACORE™ chip to form a captured antibody surface.
In experiment [20] the target is T8, wild-type human Ang-2 (hAng-2-WT). Description: SPR, captured Ab, 25°C. As to the method:
as §4

The target of experiment [21] is T13, Full-length wild-type human Ang-1 (hAng-1-WT) (human, UniProt Q15389 20-498, limits assumed).
T13 construct: also called recombinant human Ang-1 (R&D Systems)
T13 sequence (looked up): T5 sequence (looked up)
Description: SPR, captured Ab, 25°C. As to the method:
as §4

Experiment [22] has as its target T7, Monomeric hAng-2FD. The experiment is described as follows: SPR, captured Ab, 37°C. The protocol: as §4
The target of experiment [23] is T8, wild-type human Ang-2 (hAng-2-WT). Description: SPR, captured Ab, 37°C. The protocol:
as §4

The target in experiment [24] is T13, Full-length wild-type human Ang-1 …. The experiment is described as follows: SPR, captured Ab, 37°C. As to the method:
as §4

T10 sequence (chain, as listed by the source limits assumed): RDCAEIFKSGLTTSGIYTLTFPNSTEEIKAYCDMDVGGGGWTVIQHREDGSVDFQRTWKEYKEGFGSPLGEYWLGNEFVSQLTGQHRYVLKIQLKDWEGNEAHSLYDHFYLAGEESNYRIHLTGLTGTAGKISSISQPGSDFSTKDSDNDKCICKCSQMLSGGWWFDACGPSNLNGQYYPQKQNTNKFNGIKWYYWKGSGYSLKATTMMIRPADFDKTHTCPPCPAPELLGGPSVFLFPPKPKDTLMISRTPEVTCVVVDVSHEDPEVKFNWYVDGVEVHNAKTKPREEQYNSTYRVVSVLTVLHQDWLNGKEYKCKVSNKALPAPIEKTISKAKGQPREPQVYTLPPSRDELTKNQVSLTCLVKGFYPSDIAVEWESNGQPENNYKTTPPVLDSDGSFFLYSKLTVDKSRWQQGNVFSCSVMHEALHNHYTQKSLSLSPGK
T11 sequence (chain, as listed by the source limits assumed): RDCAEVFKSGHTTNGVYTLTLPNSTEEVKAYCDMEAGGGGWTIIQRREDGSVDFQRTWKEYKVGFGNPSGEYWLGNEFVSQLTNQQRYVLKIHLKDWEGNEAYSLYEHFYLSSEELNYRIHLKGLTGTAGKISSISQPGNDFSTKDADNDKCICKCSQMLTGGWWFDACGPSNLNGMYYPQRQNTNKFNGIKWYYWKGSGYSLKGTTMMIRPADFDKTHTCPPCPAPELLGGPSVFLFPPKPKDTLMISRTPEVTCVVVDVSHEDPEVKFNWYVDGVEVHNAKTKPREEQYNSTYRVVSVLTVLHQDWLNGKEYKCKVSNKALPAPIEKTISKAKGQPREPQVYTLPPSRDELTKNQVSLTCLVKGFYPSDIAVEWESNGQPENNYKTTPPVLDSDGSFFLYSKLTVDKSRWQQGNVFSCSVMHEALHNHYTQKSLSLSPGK
T6 sequence (chain, as listed by the source limits assumed): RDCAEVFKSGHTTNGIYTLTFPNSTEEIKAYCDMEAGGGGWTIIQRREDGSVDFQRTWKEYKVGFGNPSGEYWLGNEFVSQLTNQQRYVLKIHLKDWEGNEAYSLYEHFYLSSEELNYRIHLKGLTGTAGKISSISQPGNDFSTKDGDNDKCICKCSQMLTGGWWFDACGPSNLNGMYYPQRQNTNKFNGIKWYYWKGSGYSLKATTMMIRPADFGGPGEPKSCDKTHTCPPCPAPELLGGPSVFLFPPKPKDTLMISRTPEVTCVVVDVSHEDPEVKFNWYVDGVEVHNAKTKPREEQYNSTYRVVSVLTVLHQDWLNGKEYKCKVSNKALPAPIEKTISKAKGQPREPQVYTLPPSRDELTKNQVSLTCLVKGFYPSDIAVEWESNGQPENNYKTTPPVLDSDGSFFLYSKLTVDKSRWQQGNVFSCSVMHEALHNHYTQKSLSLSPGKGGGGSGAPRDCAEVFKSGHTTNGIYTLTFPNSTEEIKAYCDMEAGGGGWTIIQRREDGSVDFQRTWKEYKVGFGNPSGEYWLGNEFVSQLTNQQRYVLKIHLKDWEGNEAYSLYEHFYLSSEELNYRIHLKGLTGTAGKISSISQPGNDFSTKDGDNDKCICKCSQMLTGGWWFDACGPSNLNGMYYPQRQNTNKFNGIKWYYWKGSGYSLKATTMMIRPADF
T2 sequence (chain, as listed by the source limits assumed): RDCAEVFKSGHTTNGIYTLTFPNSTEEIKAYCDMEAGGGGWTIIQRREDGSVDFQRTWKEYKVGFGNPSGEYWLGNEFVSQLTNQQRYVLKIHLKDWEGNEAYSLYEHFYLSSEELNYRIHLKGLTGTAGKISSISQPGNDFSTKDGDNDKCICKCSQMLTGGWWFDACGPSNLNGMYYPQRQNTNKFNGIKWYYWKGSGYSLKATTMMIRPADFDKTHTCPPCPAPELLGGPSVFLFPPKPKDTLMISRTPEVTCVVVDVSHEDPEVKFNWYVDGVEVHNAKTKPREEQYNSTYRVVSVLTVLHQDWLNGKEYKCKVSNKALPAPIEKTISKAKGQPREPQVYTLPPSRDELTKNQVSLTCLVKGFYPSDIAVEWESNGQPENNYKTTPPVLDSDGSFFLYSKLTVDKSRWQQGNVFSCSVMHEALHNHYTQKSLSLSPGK

B1: H1H724N (antibody, V domains shown)
VH: QVQLVESGGGVVQPGRSLRLSCAASGFTLSNYGMHWVRQAPGKGLEWVAVIWHDGSNTYYADSVKGRFTISRDNSKNTLYLQMNSLRAEDTAVYYCTREGLDFWSGYYPNWFDPWGQGTLVTVSS
VL: DIQMTQSPSSLSASVGDRVTITCRASQGIRNDLGWYQQKPGKAPKRLIYAASNLQGGVPSRFSGSGSGTEFTLTISSLQPEDFAAYYCLQHNIYPLTFGGGTKVEIK
One may read the IC50 as the concentration that inhibits the measured activity by half. Molecule B1 showed an IC50 in experiment [1] of 4 pM. Further, the “Percent Blocking of Ang-2FD Binding to Tie-2” value in experiment [2] was 96.6%; in [3], 97.1%; in experiment [4] it was 96.6%. Further, the “Percent of Negative Control Binding” value in [5] amounted to 34%. Moreover, the “RU (average)” value in [6] was found to be 57 RU.

B2: H1H706P (antibody, human IgG1, V domains shown)
VH: QVQLVESGGGVVQPGRSLRLSCAASGFTFSSYGMHWVRQAPDKGLEWVAVKWDDGSNKYYADSVKGRFTISRDNSKNTLYLQMNSLRAEDTAVYYCAREGPYDFYSGYGAFDIWGQGTMVTVSS
VL: DIQMTQSPSSLSASVGDRVTITCRASQGISNYLAWFQQKPGKAPKSLIYAASSLQSGVPSKFSGSGSGTDFTLTISSLQPEDFATYYCQQYNSYPRTFGQGTKVEIK
notes: Human IgG1
For B2, the IC50 in experiment [1] turned out to be 8 pM. The “Percent Blocking of Ang-2FD Binding to Tie-2” value in experiment [2] was determined as 97.1%; in experiment [3], 95.9%; in experiment [4], 99.8%. Besides, the “Percent of Negative Control Binding” value in experiment [5] turned out to be 83%. Besides, the “RU (average)” value in [6] amounted to 140 RU.

B3: H1H744N (antibody, V domains shown)
VH: QVQLVQSGVEVKKPGASVKVSCKTSGYTFSNNGFSWVRQAPGQGLEWLGWISGYNGNTNYAQKFQGRVTMTTDTSTSTAYMELRTLRSDDTAVYYCARDQDYSNFHWLDPWGQGTLVTVAS
VL: DIQMTQSPSSVSASVGDRVIITCRASQGLSSWLAWYQQKPGTAPKLLIHSASSLQTGVPSRFSGSGSGTEFALTINSLQPEDFGTYYCQQANSFPLTFGGGTRVEIK
What is called Kd is the free concentration of one partner at which half of the binding sites on the other are occupied at equilibrium, for simple one-to-one binding. Consider B3, for which the Kd in experiment [7] was determined as 17.2 pM; in experiment [8], 1020 pM; in experiment [9], 30.8 pM; in experiment [10], 114 pM; in experiment [12], 346 pM; in experiment [13], 385 pM. The Kd in experiment [14] is 244 pM; in experiment [15], 116 pM; in [16], 215 pM; in [17], 320 pM; in [18], 105 pM; in [19], 424 pM. The Kd in experiment [20] came out at 33.5 pM; in experiment [21], 93 pM; in [22], 1420 pM; in experiment [23] it was 347 pM; in experiment [24], 31.2 pM. Moreover, the T1/2 in experiment [7] is 7.37 h; in experiment [8] it was 0.702 h; in [9] it was 13.9 h; in [10], 2.12 h; in experiment [11] it was 1.92 h; in experiment [12], 2.73 h. Besides, the T1/2 in experiment [13] came out at 0.55 h; in experiment [14] it was 0.4 h; in experiment [15], 0.383 h; in experiment [16] it was 0.433 h; in [17], 0.183 h; in experiment [18] it was 0.3 h. The T ½ in experiment [19] was determined as 1.55 h; in [20], 7.5 h; in experiment [21], 5.05 h; in [22], 0.35 h; in experiment [23], 0.8 h; in [24], 3.7 h.
